Measured values from IntAct's records for PubMed 26388029.

Tests used:
ubp1_human USP1 = ubp1_human USP1 (UniProt O94782)
Chain of ubp1_human USP1 (O94782 whole entry): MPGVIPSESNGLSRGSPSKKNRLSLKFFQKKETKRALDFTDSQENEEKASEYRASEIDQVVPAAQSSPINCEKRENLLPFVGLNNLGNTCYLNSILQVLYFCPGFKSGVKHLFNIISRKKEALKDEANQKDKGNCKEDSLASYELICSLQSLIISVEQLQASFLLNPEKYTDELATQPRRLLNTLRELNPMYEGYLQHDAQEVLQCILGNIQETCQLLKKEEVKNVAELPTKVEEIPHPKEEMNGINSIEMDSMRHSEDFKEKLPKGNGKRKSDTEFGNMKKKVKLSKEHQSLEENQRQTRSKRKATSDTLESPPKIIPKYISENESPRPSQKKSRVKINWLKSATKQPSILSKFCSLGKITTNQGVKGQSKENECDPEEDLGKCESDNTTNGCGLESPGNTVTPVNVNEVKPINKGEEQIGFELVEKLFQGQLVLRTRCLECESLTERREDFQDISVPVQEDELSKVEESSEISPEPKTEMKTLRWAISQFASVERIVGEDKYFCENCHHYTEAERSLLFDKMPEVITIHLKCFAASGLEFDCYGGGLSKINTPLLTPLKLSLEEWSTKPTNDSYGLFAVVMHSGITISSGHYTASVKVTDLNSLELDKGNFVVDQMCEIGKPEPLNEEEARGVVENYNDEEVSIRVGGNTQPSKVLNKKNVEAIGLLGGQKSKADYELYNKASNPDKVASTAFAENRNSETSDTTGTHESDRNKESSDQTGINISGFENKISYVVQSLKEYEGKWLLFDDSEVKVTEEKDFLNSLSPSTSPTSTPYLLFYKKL

Chain of USP46, P62068-1 (P62068 whole entry): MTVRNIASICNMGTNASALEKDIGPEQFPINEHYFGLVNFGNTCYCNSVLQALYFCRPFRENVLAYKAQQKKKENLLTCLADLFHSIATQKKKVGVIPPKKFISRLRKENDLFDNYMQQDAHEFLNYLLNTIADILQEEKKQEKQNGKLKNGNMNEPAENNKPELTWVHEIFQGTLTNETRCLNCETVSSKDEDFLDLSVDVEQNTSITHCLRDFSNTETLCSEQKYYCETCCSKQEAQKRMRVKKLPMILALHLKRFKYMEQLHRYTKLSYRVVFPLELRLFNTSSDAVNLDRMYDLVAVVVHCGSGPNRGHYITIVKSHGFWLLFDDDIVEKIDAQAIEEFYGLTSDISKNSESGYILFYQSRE

effect of a mutation on the interaction (USP46, P62068-1) | effect of a mutation on the interaction (ubp1_human USP1) | Substance
decreasing interaction strength | – | WD repeat-containing protein 48 (Homo sapiens), Q8TAF3-1 S170Y
disrupting interaction strength | disrupting interaction strength | WD repeat-containing protein 48 (Homo sapiens), Q8TAF3-1 K214E;W256A;R272D
